Here are results for six molecules from article PMC5103067, “Structural basis of GM-CSF and IL-2 sequestration by the viral decoy receptor GIF” (Nature Communications, 2016).

The target of assay [1] is GIF R45A, residues 1-265, C-terminal AviTag, biotinylated (Orf virus) (UniProt Q9J5U5). In words: BLI; biotinylated GIF (wild type or mutant) on streptavidin-coated biosensors, quenched with biocytin; ligand GM-CSF 1-8 uM or IL-2 3.75-30 nM; PBS pH 7.4, 0.01% BSA, 0.002% Tween-20; 298 K; Octet RED96; 1:1 interaction model; averages of triplicates. (BLI is a label-free optical method that tracks binding on a fibre tip over time.)

The target of assay [2] is GIF R106A/R188A, residues 1-265, C-terminal AviTag, biotinylated (Orf virus) (UniProt Q9J5U5). Described as above.
For assay [3], the target named is GIF H232A, residues 1-265, C-terminal AviTag, biotinylated (Orf virus) (UniProt Q9J5U5). Described as above.
In assay [4] the target is GIF R45A/R106A, residues 1-265, C-terminal AviTag, biotinylated (Orf virus) (UniProt Q9J5U5). Described as above.
In assay [5] the target is GIF R188A, residues 1-265, C-terminal AviTag, biotinylated (Orf virus) (UniProt Q9J5U5). The assay is described as above.
The target in assay [6] is GIF K211A, residues 1-265, C-terminal AviTag, biotinylated (Orf virus) (UniProt Q9J5U5). Described as above.
For assay [7], the target named is T1, Biotinylated Orf GIF, residues 1-265, C-terminal AviTag (Orf virus, UniProt Q9J5U5, biotin (AviTag, by co-expressed E. coli BirA)).
T1 chain: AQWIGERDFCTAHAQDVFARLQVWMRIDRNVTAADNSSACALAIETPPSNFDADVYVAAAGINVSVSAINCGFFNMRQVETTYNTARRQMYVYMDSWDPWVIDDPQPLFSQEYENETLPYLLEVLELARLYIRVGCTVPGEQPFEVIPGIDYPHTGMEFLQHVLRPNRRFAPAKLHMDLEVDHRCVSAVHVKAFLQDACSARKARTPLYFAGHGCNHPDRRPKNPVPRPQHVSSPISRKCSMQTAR
In words: BLI.

Assay [8] has as its target T2, Biotinylated Orf GIF, residues 1-265, C-terminal AviTag (Orf virus, UniProt Q9J5U5, biotin (AviTag, by co-expressed E. coli BirA)).
T2 construct: also called biotinylated GIF; wild-type GIF; source: HEK293T, co-transfected with BirA (pDisplayBirA-ER), expression medium desalted into HBS; not shown: AviTag, C-terminal, kept
T2 sequence: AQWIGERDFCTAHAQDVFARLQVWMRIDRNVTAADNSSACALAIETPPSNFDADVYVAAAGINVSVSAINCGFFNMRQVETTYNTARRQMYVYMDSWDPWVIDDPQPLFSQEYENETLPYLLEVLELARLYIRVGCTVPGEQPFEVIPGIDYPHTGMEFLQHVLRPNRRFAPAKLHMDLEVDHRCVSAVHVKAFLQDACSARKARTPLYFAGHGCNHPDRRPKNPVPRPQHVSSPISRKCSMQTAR
Nature of the assay: BLI; biotinylated GIF on streptavidin sensors, quenched with biocytin; cytokine in solution (GM-CSF 1-8 μM, IL-2 3.75-30 nM); PBS pH 7.4, 0.01% BSA, 0.002% Tween-20, 298 K; 1:1 model, triplicates. To be noted: one partner purified.

The target of assay [9] is T3, Orf virus GM-CSF/IL-2 inhibition factor (GIF), residues 1-265, C-terminal His6-tag (Orf virus, UniProt Q9J5U5, N-linked glycans).
T3 construct: also called His-tagged GIF; Orf GIF; source: HEK293T, transient expression (pHLsec), secreted; alone purified by IMAC and SEC with 0.15% CHAPS
T3 sequence: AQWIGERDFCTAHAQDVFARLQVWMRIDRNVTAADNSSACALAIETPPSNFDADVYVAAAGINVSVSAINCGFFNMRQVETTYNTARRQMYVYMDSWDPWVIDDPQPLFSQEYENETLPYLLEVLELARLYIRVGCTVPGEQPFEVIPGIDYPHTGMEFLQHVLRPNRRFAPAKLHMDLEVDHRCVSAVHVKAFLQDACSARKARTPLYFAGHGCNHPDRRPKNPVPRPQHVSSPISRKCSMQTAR
Nature of the assay: SEC-MALS; complexes purified after co-expression of GIF and cytokine in HEK293T; 1-2 mg/ml; Superdex Increase 10/300 GL in HBS pH 7.5, 298 K. As to conditions: both partners purified. Background: In gel filtration, larger molecules generally elute earlier.

B1: ovine IL-2 (interleukin-2), residues 21-155, as used as the ligand in BLI (ligand)
chain: APTSSSTGNTMKEVKSLLLDLQLLLEKVKNPENLKLSRMHTFNFYMPKVNATELKHLKCLLEELKLLEEVLDLAPSKNLNTREIKDSMDNIKRIVLELQGSETRFTCEYDDATVKAVEFLNKWITFCQSIYSTMT
By Kd is commonly meant the constant that tells how readily two partners part at equilibrium. Higher therefore signals weaker binding. In the case of B1, the Kd came to 0.00069 µM in [1]; 0.0053 µM in assay [2]; 0.00063 µM in assay [3]; 0.00045 µM in [4]; 0.0048 µM in assay [5]; 0.00046 µM in [6].

B2: ovine IL-2 as used as ligand in bio-layer interferometry (ligand, UniProt P19114 21-155, looked up)
chain: APTSSSTGNTMKEVKSLLLDLQLLLEKVKNPENLKLSRMHTFNFYMPKVNATELKHLKCLLEELKLLEEVLDLAPSKNLNTREIKDSMDNIKRIVLELQGSETRFTCEYDDATVKAVEFLNKWITFCQSIYSTMT
notes: also called oIL-2
Usually koff stands for the rate constant with which the complex falls apart. In turn, B2 gave a koff in assay [7] of 0.00015 s⁻¹. In assay [8], this molecule displayed a Kd of 0.00047 µM.

B3: ovine IL-2, residues 21-155, C-terminal His6-tag, from HEK293T (ligand, UniProt P19114 21-155, looked up)
chain: APTSSSTGNTMKEVKSLLLDLQLLLEKVKNPENLKLSRMHTFNFYMPKVNATELKHLKCLLEELKLLEEVLDLAPSKNLNTREIKDSMDNIKRIVLELQGSETRFTCEYDDATVKAVEFLNKWITFCQSIYSTMT
notes: also called oIL-2; source: HEK293T, transient expression (pHLsec); purified (TALON IMAC, SEC) or co-expressed with GIF and purified as a complex
The term stoichiometry N denotes a count of units in the complex or per binding partner. With B3, the “stoichiometry N” value in [9] is 2 cytokines per GIF dimer (2:2).

B4: ovine GM-CSF (granulocyte macrophage colony-stimulating factor), residues 18-144, as used as the ligand in BLI (ligand)
chain: APTRQPSPVTRPWQHVDAIKEALSLLNDSTDTAAVMDETVEVVSEMFDSQEPTCLQTRLELYKQGLRGSLTSLTGSLTMMASHYKKHCPPTQETSCETQIITFKSFKENLKDFLFIIPFDCWEPVQK
Regarding B4, the Kd in assay [1] was 0.28 µM; in assay [2], 0.27 µM; in assay [3] it was 0.67 µM; in assay [4] it was 0.38 µM; in assay [5] it was 0.57 µM; in [6], 3.7 µM.

B5: ovine GM-CSF as used as ligand in bio-layer interferometry (ligand, UniProt P28773 18-144, looked up)
chain: APTRQPSPVTRPWQHVDAIKEALSLLNDSTDTAAVMDETVEVVSEMFDSQEPTCLQTRLELYKQGLRGSLTSLTGSLTMMASHYKKHCPPTQETSCETQIITFKSFKENLKDFLFIIPFDCWEPVQK
notes: also called oGMCSF; oGM-CSF
In turn, B5 came in with a koff in [7] of 6.2e-05 s⁻¹. In assay [8], this molecule displayed a Kd of 0.027 µM.

B6: ovine GM-CSF, residues 18-144, C-terminal His6-tag, from HEK293T (ligand, UniProt P28773 18-144, looked up)
chain: APTRQPSPVTRPWQHVDAIKEALSLLNDSTDTAAVMDETVEVVSEMFDSQEPTCLQTRLELYKQGLRGSLTSLTGSLTMMASHYKKHCPPTQETSCETQIITFKSFKENLKDFLFIIPFDCWEPVQK
notes: also called oGM-CSF; source: HEK293T, transient expression (pHLsec); purified (TALON IMAC, SEC) or co-expressed with GIF and purified as a complex
As to B6, the “stoichiometry N” value in assay [9] was 2 cytokines per GIF dimer (2:2).
